# Measurements published in US20240392004A1 (IMMUNOWAKE, published 2024).
# Changes are numbered by the printed parent chain. Names may count otherwise.
# T1: human IL-2 receptor (IL-2Rα, IL-2Rβ, IL-2Rγ) (human, UniProt P01589 22-272; P14784 27-551; P31785 23-369)
# T1 sequence (looked up) 1: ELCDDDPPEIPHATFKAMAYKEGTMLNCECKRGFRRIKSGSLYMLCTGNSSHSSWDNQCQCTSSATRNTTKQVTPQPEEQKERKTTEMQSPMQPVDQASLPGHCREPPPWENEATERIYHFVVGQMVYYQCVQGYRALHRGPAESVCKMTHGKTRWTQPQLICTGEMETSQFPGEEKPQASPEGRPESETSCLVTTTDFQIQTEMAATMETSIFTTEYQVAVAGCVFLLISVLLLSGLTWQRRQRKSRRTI
# T1 sequence (looked up) 2: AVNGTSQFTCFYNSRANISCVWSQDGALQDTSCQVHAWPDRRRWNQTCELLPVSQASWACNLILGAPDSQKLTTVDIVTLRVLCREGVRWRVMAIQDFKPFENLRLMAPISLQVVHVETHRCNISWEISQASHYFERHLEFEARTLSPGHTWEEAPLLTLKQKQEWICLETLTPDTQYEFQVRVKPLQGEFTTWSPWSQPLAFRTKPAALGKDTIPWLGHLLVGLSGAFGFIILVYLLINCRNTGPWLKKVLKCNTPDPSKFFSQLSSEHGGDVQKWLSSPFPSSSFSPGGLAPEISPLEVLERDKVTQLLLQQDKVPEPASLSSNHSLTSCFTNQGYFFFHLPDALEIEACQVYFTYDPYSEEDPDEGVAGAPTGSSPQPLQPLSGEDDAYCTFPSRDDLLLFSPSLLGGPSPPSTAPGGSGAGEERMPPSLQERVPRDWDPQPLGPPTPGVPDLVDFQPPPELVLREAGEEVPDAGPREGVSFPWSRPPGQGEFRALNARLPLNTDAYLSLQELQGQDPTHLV
# T1 sequence (looked up) 3: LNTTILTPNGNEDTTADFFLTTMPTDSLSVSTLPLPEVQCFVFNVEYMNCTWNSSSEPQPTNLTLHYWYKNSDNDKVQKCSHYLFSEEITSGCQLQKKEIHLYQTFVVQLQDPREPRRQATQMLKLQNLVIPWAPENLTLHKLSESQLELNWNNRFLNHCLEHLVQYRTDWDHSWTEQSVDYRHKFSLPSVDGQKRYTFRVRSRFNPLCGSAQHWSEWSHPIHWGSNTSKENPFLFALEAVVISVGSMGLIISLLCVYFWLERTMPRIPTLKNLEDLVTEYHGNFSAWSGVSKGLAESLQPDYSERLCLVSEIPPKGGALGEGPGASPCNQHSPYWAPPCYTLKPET
# T2: human TIGIT on HEK-Blue reporter cells (human, UniProt Q495A1 22-244)
# T2 sequence (looked up): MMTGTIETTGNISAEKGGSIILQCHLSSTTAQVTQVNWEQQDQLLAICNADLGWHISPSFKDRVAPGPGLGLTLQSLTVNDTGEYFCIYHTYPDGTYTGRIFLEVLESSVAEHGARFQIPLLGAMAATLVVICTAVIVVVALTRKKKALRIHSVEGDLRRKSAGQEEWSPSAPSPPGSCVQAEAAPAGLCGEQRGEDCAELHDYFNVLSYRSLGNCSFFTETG
# B1: IL-12(E59A/F60A)/CD155-Fc (IL-12 at hinge) (Fc fusion)
# chain 1: WPPPGTGDVVVQAPTQVPGFLGDSVTLPCYLQVPNMEVTHVSQLTWARHGESGSMAVFHQTQGPSYSESKRLEFVAARLGAELRNASLRMFGLRVEDEGNYTCLFVTFPQGSRSVDIWLRVLAKPQNTAEVQKVQLTGEPVPMARCVSTGGRPPAQITWHSDLGGMPNTSQVPGFLSGTVTVTSLWILVPSSQVDGKNVTCKVEHESFEKPQLLTVNLTVYYPPEVSISGYDNNWYLGQNEATLTCDARSNPEPTGYNWSTTMGPLPPFAVAQGAQLLIRPVDKPINTTLICNVTNALGARQAELTVQVKEGPPSEHSGISRNGGGGSGGGIWELKKDVYVVELDWYPDAPGEMVVLTCDTPEEDGITWTLDQSSEVLGSGKTLTIQVKAAGDAGQYTCHKGGEVLSHSLLLLHKKEDGIWSTDILKDQKEPKNKTFLRCEAKNYSGRFTCWWLTTISTDLTFSVKSSRGSSDPQGVTCGAATLSAERVRGDNKEYEYSVECQEDSACPAAEESLPIEVMVDAVHKLKYENYTSSFFIRDIIKPDPPKNLQLKPLKNSRQVEVSWEYPDTWSTPHSYFSLTFCVQVQGKSKREKKDRVFTDKTSATVICRKNASISVRAQDRYYSSSWSEWASVPCSGGGGSGGGSGGGGSRNLPVATPDPGMFPCLHHSQNLLRAVSNMLQKARQTLEFYPCTSEEIDHEDITKDKTSTVEACLPLELTKNESCLNSRETSFITNGSCLASRKTSFMMALCLSSIYEDLKMYQVEFKTMNAKLLMDPKRQIFLDQNMLAVIDELMQALNFNSETVPQKSSLEEPDFYKTKIKLCILLHAFRIRAVTIDRVMSYLNASGGGGSGGGDKTHTCPPCPAPEDEGGPSVFLFPPKPKDTLMISRTPEVTCVVVDVSHEDPEVKFNWYVDGVEVHNAKTKPREEQYNSTYRVVSVLTVLHQDWLNGKEYKCKVSNKALPAPIEKTISKAKGQPREPQVYVYPPSREEMTKNQVSLTCLVKGFYPSDIAVEWESNGQPENNYKTTPPVLDEDGSFALVSKLTVDKSRWQQGNVFSCSVMHEALHNHYTQKSLSLSPGK
# chain 2: WPPPGTGDVVVQAPTQVPGFLGDSVTLPCYLQVPNMEVTHVSQLTWARHGESGSMAVFHQTQGPSYSESKRLEFVAARLGAELRNASLRMFGLRVEDEGNYTCLFVTFPQGSRSVDIWLRVLAKPQNTAEVQKVQLTGEPVPMARCVSTGGRPPAQITWHSDLGGMPNTSQVPGFLSGTVTVTSLWILVPSSQVDGKNVTCKVEHESFEKPQLLTVNLTVYYPPEVSISGYDNNWYLGQNEATLTCDARSNPEPTGYNWSTTMGPLPPFAVAQGAQLLIRPVDKPINTTLICNVTNALGARQAELTVQVKEGPPSEHSGISRNGGGGSGGGDKTHTCPPCPAPEKKGGPSVFLFPPKPKDTLMISRTPEVTCVVVDVSHEDPEVKFNWYVDGVEVHNAKTKPREEQYNSTYRVVSVLTVLHQDWLNGKEYKCKVSNKALPAPIEKTISKAKGQPREPQVYVLPPSREEMTKNQVSLLCLVKGFYPSDIAVEWESNGQPENRYMTWPPVLDSDGSFFLYSKLTVDKSRWQQGNVFSCSVMHEALHNHYTQKSLSLSPGK
# B2: IL-12(E59A/F60A)/IL-2(L18R/Q22E/R38D/K43E/E61R)/CD155-Fc (Fc fusion)
# chain 1: B1 chain 1
# chain 2: WPPPGTGDVVVQAPTQVPGFLGDSVTLPCYLQVPNMEVTHVSQLTWARHGESGSMAVFHQTQGPSYSESKRLEFVAARLGAELRNASLRMFGLRVEDEGNYTCLFVTFPQGSRSVDIWLRVLAKPQNTAEVQKVQLTGEPVPMARCVSTGGRPPAQITWHSDLGGMPNTSQVPGFLSGTVTVTSLWILVPSSQVDGKNVTCKVEHESFEKPQLLTVNLTVYYPPEVSISGYDNNWYLGQNEATLTCDARSNPEPTGYNWSTTMGPLPPFAVAQGAQLLIRPVDKPINTTLICNVTNALGARQAELTVQVKEGPPSEHSGISRNGGGSGAPTSSSTKKTQLQLEHLRLDLEMILNGINNYKNPKLTDMLTFEFYMPKKATELKHLQCLERELKPLEEVLNLAQSKNFHLRPRDLISNINVIVLELKGSETTFMCEYADETATIVEFLNRWITFCQSIISTLTGGGGSGGGDKTHTCPPCPAPEKKGGPSVFLFPPKPKDTLMISRTPEVTCVVVDVSHEDPEVKFNWYVDGVEVHNAKTKPREEQYNSTYRVVSVLTVLHQDWLNGKEYKCKVSNKALPAPIEKTISKAKGQPREPQVYVLPPSREEMTKNQVSLLCLVKGFYPSDIAVEWESNGQPENRYMTWPPVLDSDGSFFLYSKLTVDKSRWQQGNVFSCSVMHEALHNHYTQKSLSLSPGK
# B3: IL-12(E59A/F60A)/IL-2(L18R/Q22E/R38D/K43E/E61R/Q126T)/CD155-Fc (Fc fusion)
# chain 1: B1 chain 1
# chain 2: B2 chain 2 with Q454T
# B4: IL-2(L18R/Q22E/R38D/K43E/E61R/Q126T/S130R)/CD155-Fc (Fc fusion)
# chain 1: B1 chain 2 with K345D, K346E, L462Y, L477T, R501N, M503K, W505T, S511E, F516A, Y518V
# chain 2: B2 chain 2 with Q454T, S458R
# B5: IL-12(E59A/F60A)/IL-2(L18R/Q22E/R38D/K43E/E61R/Q126T/S130R)/CD155-Fc (Fc fusion)
# chain 1: B1 chain 1
# chain 2: B2 chain 2 with Q454T, S458R
# B6: IL-12(E59A/F60A)/IL-2(R38D/K43E/E61R/Q126T)/CD155-Fc (Fc fusion)
# chain 1: B1 chain 1
# chain 2: B2 chain 2 with R346L, E350Q, Q454T
# Molecular target: T1, human IL-2 receptor (IL-2Rα, IL-2Rβ, …)
# Experiment: cell-based or functional assay
row,"IL-2 signal transduction, HEK-IL-2 [%]",Binder
1,< 0.1,B1
2,12,B2
3,2,B3
4,< 0.1,B4
5,< 0.1,B5
6,4,B6

# Molecular target: T2, human TIGIT on HEK-Blue reporter cells
# Experiment: cell-based or functional assay
"IL-2 signal transduction, HEK-IL-2-TIGIT [%]","IL-12 signal transduction, HEK-IL-12-TIGIT [%]",Binder
< 0.1,21,B1
78,21,B2
20,19,B3
< 0.1,,B4
< 0.1,15,B5
35,17,B6

# Molecular target: human IL-12 receptor complex (IL-12Rβ1 and IL-12Rβ2) (human, UniProt P42701 24-662; Q99665 24-862)
# Sequence (Q99665 24-862, chain 2 of 2, other chains not shown): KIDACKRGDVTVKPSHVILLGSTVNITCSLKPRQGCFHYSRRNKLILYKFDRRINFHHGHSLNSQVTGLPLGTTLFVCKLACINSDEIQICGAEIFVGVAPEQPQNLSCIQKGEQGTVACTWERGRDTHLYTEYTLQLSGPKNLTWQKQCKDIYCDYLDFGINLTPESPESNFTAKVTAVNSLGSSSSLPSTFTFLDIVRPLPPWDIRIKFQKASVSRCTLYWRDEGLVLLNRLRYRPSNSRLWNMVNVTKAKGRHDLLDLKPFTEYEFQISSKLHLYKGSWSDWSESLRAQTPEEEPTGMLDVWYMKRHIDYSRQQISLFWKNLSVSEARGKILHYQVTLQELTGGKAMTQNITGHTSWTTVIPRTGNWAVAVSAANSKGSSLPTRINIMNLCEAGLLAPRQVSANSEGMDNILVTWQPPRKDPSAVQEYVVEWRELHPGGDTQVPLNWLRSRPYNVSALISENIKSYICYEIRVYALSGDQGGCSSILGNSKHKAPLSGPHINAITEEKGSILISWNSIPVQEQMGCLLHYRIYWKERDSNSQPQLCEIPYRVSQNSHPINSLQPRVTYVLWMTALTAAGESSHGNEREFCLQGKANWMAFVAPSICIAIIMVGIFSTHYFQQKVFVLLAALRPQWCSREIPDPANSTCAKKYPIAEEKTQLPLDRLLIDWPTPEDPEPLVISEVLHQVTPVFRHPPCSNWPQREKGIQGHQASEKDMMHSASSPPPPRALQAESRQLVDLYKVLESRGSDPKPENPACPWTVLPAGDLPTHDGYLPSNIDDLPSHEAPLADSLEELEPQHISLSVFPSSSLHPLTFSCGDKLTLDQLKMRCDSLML
# Experiment: cell-based or functional assay
row,"IL-12 signal transduction, HEK-IL-12 [%]",Binder
1,< 0.2,B1
2,< 0.2,B2
3,< 0.2,B3
4,< 0.2,B5
5,< 0.2,B6
